From the supplement of paper PMC10126150
± gives the standard deviation of the averaged measurements.

Test system: ATP
Assay: switch fluorescence ratio, 500 uM ATP over buffer (Cy3 cluster intensity, sum of 5 cycles each) (fold (ratio)); higher = stronger signal-on switching upon ATP binding; sequences stand for … in TCGTCGGCAGCGTCAGATGTGTATAAGAGACAGTTTTTTTTTTTTTTTTTTTTTTTTT…TC
Conditions: aptamer strand: ATP DNA aptamer (quencher-CACCTGGGGGAGTATTGCGGAGGAAGG + anchor), 100 nM annealed; ATP concentration: 500 uM
In short: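 Per cluster, summed Cy3 intensity from the target cycles was divided by that from the buffer cycles to give the fluorescence ratio, then averaged per switch-domain sequence. Clusters outside 100-1000 RFU were excluded. The Cy3-labelled switching-strand clusters, on a modified Illumina MiSeq flow-cell, were annealed to 100 nM quencher-labelled ATP aptamer and imaged in selection buffer, then after 15 min with 500 uM ATP at 22 °C, for five cycles with NaOH stripping and re-annealing between them.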
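Also: ATP exposure 15 min at 22 °C before imaging.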

Sequence | switch fluorescence ratio
TTGCAAAAGC | 1 ± 0.065
TTGCAACTTT | 1.12 ± 0.17
TTGCAAGAAT | 1.023 ± 0.0021
TTGCAAGCGG | 0.995 ± 0.011
TTGCACCGGT | 1.034 ± 0.0055
TTGCACGGGT | 1.01 ± 0.02
TTGCAGGAGG | 1 ± 0.019
TTGCAGGGT | 0.9804 ± 0.0019
TTGCATAGGG | 1.02 ± 0.023
TTGCATATTT | 1.05 ± 0.033
TTGCATGGTG | 1.06 ± 0.03
TTGCCAAGTG | 1.01 ± 0.02
TTGCCATGTG | 1 ± 0.034
TTGCCGATAC | 2.16 ± 0.12
TTGCCGCTTG | 1.21 ± 0.33
TTGCCGGGAG | 1.02 ± 0.066
TTGCCGGTAT | 1.05 ± 0.021
TTGCCGTTCA | 1.02 ± 0.013
TTGCCTGCAT | 1.011 ± 0.0092
TTGCCTTCCG | 2.17 ± 0.27
TTGCGAGCTT | 0.986 ± 0.061
TTGCGAGGGG | 0.9778 ± 0.006
TTGCGATGGG | 0.995 ± 0.03

Sequence | switch fluorescence ratio
TTGCGCGGGG | 1.02 ± 0.077
TTGCGGCGTG | 0.956 ± 0.024
TTGCGGGAAC | 1.07 ± 0.063
TTGCGGGGAA | 1.03 ± 0.029
TTGCGGGGGA | 1.01 ± 0.028
TTGCGGGGT | 1.02 ± 0.011
TTGCGGTTAG | 1.012 ± 0.0017
TTGCGGTTGA | 1.0313 ± 0.00057
TTGCGGTTGG | 1 ± 0.076
TTGCGTATGC | 1.08 ± 0.11
TTGCTAATAT | 1.038 ± 0.0093
TTGCTACAGT | 1.01 ± 0.019
TTGCTATCAG | 1 ± 0.047
TTGCTCAGGG | 1.03 ± 0.041
TTGCTCGCCG | 1.08 ± 0.035
TTGCTCTAAC | 0.998 ± 0.022
TTGCTCTCTT | 0.98 ± 0.083
TTGCTCTTTT | 1.019 ± 0.0013
TTGCTGGGTG | 1.1 ± 0.056
TTGCTGGTTG | 1.01 ± 0.03
TTGCTGTACT | 1.02 ± 0.021
TTGCTGTGTC | 1.07 ± 0.028
TTGCTGTTGG | 1.03 ± 0.033

Sequence | switch fluorescence ratio
TTGCTGTTGT | 1.01 ± 0.022
TTGCTTAAGT | 1.03 ± 0.075
TTGCTTCCAC | 1.08 ± 0.032
TTGCTTGGTT | 0.996 ± 0.011
TTGCTTTGTC | 0.994 ± 0.013
TTGCTTTTAT | 0.991 ± 0.024
TTGGAAAAGG | 1.02 ± 0.029
TTGGAAAATT | 1.21 ± 0.35
TTGGAAATTG | 1.01 ± 0.019
TTGGAATATT | 0.9812 ± 0.0027
TTGGACATAT | 1.008 ± 0.0039
TTGGACATGG | 0.963 ± 0.012
TTGGACCATG | 1.01 ± 0.038
TTGGACGGTT | 1 ± 0.015
TTGGACTAGC | 0.981 ± 0.033
TTGGACTAGT | 1.018 ± 0.0023
TTGGAGAAGG | 0.998 ± 0.018
TTGGAGCCCT | 1.069 ± 0.0022
TTGGAGGGGT | 1.09 ± 0.15
TTGGAGTCCC | 0.99 ± 0.022
TTGGAGTTCG | 0.982 ± 0.013
TTGGAGTTG | 1.02 ± 0.048
TTGGATGGGG | 0.972 ± 0.017

Sequence | switch fluorescence ratio
TTGGATTGGC | 0.978 ± 0.023
TTGGATTTAA | 1.02 ± 0.012
TTGGCAAGCT | 1.06 ± 0.072
TTGGCACGTG | 0.985 ± 0.061
TTGGCAGATG | 1 ± 0.043
TTGGCATATC | 1.89 ± 0.76
TTGGCATGAG | 0.987 ± 0.02
TTGGCATGCG | 1.01 ± 0.021
TTGGCCATCG | 0.954 ± 0.039
TTGGCCATGA | 0.976 ± 0.029
TTGGCCGGG | 0.9643 ± 0.009
TTGGCGCGCA | 1.023 ± 0.0016
TTGGCGCTGG | 0.993 ± 0.026
TTGGCTAATA | 1.01 ± 0.018
TTGGCTACTG | 0.962 ± 0.065
TTGGCTAGTT | 1 ± 0.029
TTGGCTGTTT | 1.016 ± 0.01
TTGGCTTTGA | 0.9893 ± 0.0097
TTGGGAAATA | 1.01 ± 0.024
TTGGGAACTA | 1.01 ± 0.02
TTGGGAATA | 0.988 ± 0.035
TTGGGAATTC | 0.98044 ± 0.00048
TTGGGACTAC | 1.02 ± 0.036

Sequence | switch fluorescence ratio
TTGGGACTTG | 0.999 ± 0.054
TTGGGAGATT | 0.971 ± 0.024
TTGGGAGCGT | 1.01 ± 0.017
TTGGGAGCTG | 1.021 ± 0.0068
TTGGGAGGGT | 0.999 ± 0.029
TTGGGATTCG | 1.01 ± 0.013
TTGGGATTTA | 0.95 ± 0.015
TTGGGCAGAG | 0.993 ± 0.043
TTGGGCGTCG | 0.995 ± 0.047
TTGGGCTCTA | 1.002 ± 0.0012
TTGGGCTGCT | 0.9743 ± 0.00051
TTGGGGAAGT | 0.994 ± 0.039
TTGGGGACGT | 1.01 ± 0.042
TTGGGGAGAA | 0.98 ± 0.035
TTGGGGCAGG | 1.1 ± 0.07
TTGGGGCATG | 0.971 ± 0.011
TTGGGGCTAG | 1.02 ± 0.026
TTGGGGGAAT | 0.992 ± 0.026
TTGGGGGACC | 0.998 ± 0.025
TTGGGGGCAG | 1.01 ± 0.018
TTGGGGGGGG | 1.01 ± 0.056
TTGGGGGGT | 1.06 ± 0.012
TTGGGGGTCA | 1.01 ± 0.023

Sequence | switch fluorescence ratio
TTGGGGGTCG | 1.02 ± 0.034
TTGGGGGTGT | 1.03 ± 0.1
TTGGGGTACG | 1.01 ± 0.021
TTGGGGTCAG | 1 ± 0.038
TTGGGGTCCA | 0.977 ± 0.015
TTGGGGTCGT | 0.974 ± 0.03
TTGGGGTGGA | 0.99 ± 0.018
TTGGGGTTGG | 1.01 ± 0.03
TTGGGTAGAT | 0.988 ± 0.025
TTGGGTAGGG | 1.01 ± 0.051
TTGGGTCATG | 1.036 ± 0.0048
TTGGGTGTTA | 0.9907 ± 0.0021
TTGGGTTAGT | 1.01 ± 0.019
TTGGGTTCAA | 1.4 ± 0.52
TTGGTACATT | 0.99163 ± 8.4e-05
TTGGTAGGAG | 0.985 ± 0.042
TTGGTAGTCT | 1.04 ± 0.012
TTGGTAGTGG | 0.977 ± 0.028
TTGGTAGTTG | 0.954 ± 0.011
TTGGTATTGA | 0.99 ± 0.098
TTGGTCGGG | 0.98 ± 0.044
TTGGTCTTAC | 1.06 ± 0.096
TTGGTCTTGA | 0.994 ± 0.018

Sequence | switch fluorescence ratio
TTGGTGACGG | 0.986 ± 0.013
TTGGTGAGGG | 0.978 ± 0.022
TTGGTGGAAG | 1.02 ± 0.0057
TTGGTGGACA | 0.976 ± 0.026
TTGGTGTAGC | 0.972 ± 0.026
TTGGTGTGAC | 1.05 ± 0.065
TTGGTGTTCA | 0.996 ± 0.013
TTGGTTAAAT | 1.01 ± 0.026
TTGGTTAATG | 1.01 ± 0.019
TTGGTTCCAT | 1.02 ± 0.017
TTGGTTCGAC | 0.962 ± 0.04
TTGGTTCGTT | 0.994 ± 0.025
TTGGTTGACG | 0.963 ± 0.041
TTGGTTGCG | 1.02 ± 0.026
TTGGTTGTCG | 1.02 ± 0.019
TTGGTTTACT | 1.22 ± 0.3
TTGGTTTCCC | 1.01 ± 0.02
TTGGTTTTGC | 0.99 ± 0.019
TTGGTTTTT | 0.993 ± 0.019
